Experimental data from the supplement of paper PMC5998384.

Tests used:
[1] = system: HeLa Kyoto; assay: solubility in G1/S (NP-40 vs SDS abundance) (log2 ratio); higher = more soluble; conditions: cell cycle stage: G1/S
[2] = system: HeLa Kyoto; assay: solubility change mitosis vs G1/S (difference of NP-40 vs SDS log2 ratios) (log2 ratio difference); higher = more soluble in mitosis
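Wherever solubility change mitosis vs G1/S (difference of NP-40 vs SDS log2 ratios) is given: synchronized HeLa Kyoto cells (double thymidine block for G1/S, nocodazole release for mitosis), protein amounts in NP-40 versus SDS lysates quantified by mass spectrometry, three biological replicates.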
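Wherever solubility in G1/S (NP-40 vs SDS abundance) is given: HeLa Kyoto cells arrested at G1/S by double thymidine block, proteins quantified by TMT10plex mass spectrometry in mild NP-40 versus SDS extracts, three biological replicates.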

Substance	solubility in G1/S (log2) [1]	solubility change mitosis (log2) [2]
MKTVLMVAEKPSLAQSIAKILSRGSLSSHKGLNGACSVHEYTGTFAGQPVRFKMTSVCGHVMTLDFLGKYNKWDKVDPAELFSQAPTEKKEANPKLNMVKFLQVEGRGCDYIVLWLDCDKEGENICFEVLDAVLPVMNKAHGGEKTVFRARFSSITDTDICNAMACLGEPDHNEALSVDARQELDLRIGCAFTRFQTKYFQGKYGDLDSSLISFGPCQTPTLGFCVERHDKIQSFKPETYWVLQAKVNTDKDRSLLLDWDRVRVFDREIAQMFLNMTKLEKEAQVEATSRKEKAKQRPLALNTVEMLRVASSSLGMGPQHAMQTAERLYTQGYISYPRTETTHYPENFDLKGSLRQQANHPYWADTVKRLLAEGINRPRKGHDAGDHPPITPMKSATEAELGGDAWRLYEYITRHFIATVSHDCKYLQSTISFRIGPELFTCSGKTVLSPGFTEVMPWQSVPLEESLPTCQRGDAFPVGEVKMLEKQTNPPDYLTEAELITLMEKHGIGTDASIPVHINNICQRNYVTVESGRRLKPTNLGIVLVHGYYKIDAELVLPTIRSAVEKQLNLIAQGKADYRQVLGHTLDVFKRKFHYFVDSIAGMDELMEVSFSPLAATGKPLSRCGKCHRFMKYIQAKPSRLHCSHCDETYTLPQNGTIKLYKELRCPLDDFELVLWSSGSRGKSYPLCPYCYNHPPFRDMKKGMGCNECTHPSCQHSLSMLGIGQCVECESGVLVLDPTSGPKWKVACNKCNVVAHCFENAHRVRVSADTCSVCEAALLDVDFNKAKSPLPGDETQHMGCVFCDPVFQELVELKHAASCHPMHRGGPGRRQGRGRGRARRPPGKPNPRRPKDKMSALAAYFV [TOP3B]	-0.535	0.0647
MNDISQKAEILLSSSKPVPKTYVPKLGKGDVKDKFEAMQRAREERNQRRSRDEKQRRKEQYIREREWNRRKQEIKEMLASDDEEDVSSKVEKAYVPKLTGTVKGRFAEMEKQRQEEQRKRTEEERKRRIEQDMLEKRKIQRELAKRAEQIEDINNTGTESASEEGDDSLLITVVPVKSYKTSGKMKKNFEDLEKEREEKERIKYEEDKRIRYEEQRPSLKEAKCLSLVMDDEIESEAKKESLSPGKLKLTFEELERQRQENRKKQAEEEARKRLEEEKRAFEEARRQMVNEDEENQDTAKIFKGYRPGKLKLSFEEMERQRREDEKRKAEEEARRRIEEEKKAFAEARRNMVVDDDSPEMYKTISQEFLTPGKLEINFEELLKQKMEEEKRRTEEERKHKLEMEKQEFEQLRQEMGEEEEENETFGLSREYEELIKLKRSGSIQAKNLKSKFEKIGQLSEKEIQKKIEEERARRRAIDLEIKEREAENFHEEDDVDVRPARKSEAPFTHKVNMKARFEQMAKAREEEEQRRIEEQKLLRMQFEQREIDAALQKKREEEEEEEGSIMNGSTAEDEEQTRSGAPWFKKPLKNTSVVDSEPVRFTVKVTGEPKPEITWWFEGEILQDGEDYQYIERGETYCLYLPETFPEDGGEYMCKAVNNKGSAASTCILTIESKN [NEXN]	-0.858	0.21
MASKRKSTTPCMVRTSQVVEQDVPEEVDRAKEKGIGTPQPDVAKDSWAAELENSSKENEVIEVKSMGESQSKKLQGGYECKYCPYSTQNLNEFTEHVDMQHPNVILNPLYVCAECNFTTKKYDSLSDHNSKFHPGEANFKLKLIKRNNQTVLEQSIETTNHVVSITTSGPGTGDSDSGISVSKTPIMKPGKPKADAKKVPKKPEEITPENHVEGTARLVTDTAEILSRLGGVELLQDTLGHVMPSVQLPPNINLVPKVPVPLNTTKYNSALDTNATMINSFNKFPYPTQAELSWLTAASKHPEEHIRIWFATQRLKHGISWSPEEVEEARKKMFNGTIQSVPPTITVLPAQLAPTKVTQPILQTALPCQILGQTSLVLTQVTSGSTTVSCSPITLAVAGVTNHGQKRPLVTPQAAPEPKRPHIAQVPEPPPKVANPPLTPASDRKKTKEQIAHLKASFLQSQFPDDAEVYRLIEVTGLARSEIKKWFSDHRYRCQRGIVHITSESLAKDQLAIAASRHGRTYHAYPDFAPQKFKEKTQGQVKILEDSFLKSSFPTQAELDRLRVETKLSRREIDSWFSERRKLRDSMEQAVLDSMGSGKKGQDVGAPNGALSRLDQLSGAQLTSSLPSPSPAIAKSQEQVHLLRSTFARTQWPTPQEYDQLAAKTGLVRTEIVRWFKENRCLLKTGTVKWMEQYQHQPMADDHGYDAVARKATKPMAESPKNGGDVVPQYYKDPKKLCEEDLEKLVTRVKVGSEPAKDCLPAKPSEATSDRSEGSSRDGQGSDENEESSVVDYVEVTVGEEDAISDRSDSWSQAAAEGVSELAESDSDCVPAEAGQA [ZHX2]	0.134	-0.0666
MFSLKPPKPTFRSYLLPPPQTDDKINSEPKIKKLEPVLLPGEIVVNEVNFVRKCIATDTSQYDLWGKLICSNFKISFITDDPMPLQKFHYRNLLLGEHDVPLTCIEQIVTVNDHKRKQKVLGPNQKLKFNPTELIIYCKDFRIVRFRFDESGPESAKKVCLAIAHYSQPTDLQLLFAFEYVGKKYHNSANKINGIPSGDGGGGGGGGNGAGGGSSQKTPLFETYSDWDREIKRTGASGWRVCSINEGYMISTCLPEYIVVPSSLADQDLKIFSHSFVGRRMPLWCWSHSNGSALVRMALIKDVLQQRKIDQRICNAITKSHPQRSDVYKSDLDKTLPNIQEVQAAFVKLKQLCVNEPFEETEEKWLSSLENTRWLEYVRAFLKHSAELVYMLESKHLSVVLQEEEGRDLSCCVASLVQVMLDPYFRTITGFQSLIQKEWVMAGYQFLDRCNHLKRSEKESPLFLLFLDATWQLLEQYPAAFEFSETYLAVLYDSTRISLFGTFLFNSPHQRVKQSTEFAISKNIQLGDEKGLKFPSVWDWSLQFTAKDRTLFHNPFYIGKSTPCIQNGSVKSFKRTKKSYSSTLRGMPSALKNGIISDQELLPRRNSLILKPKPDPAQQTDSQNSDTEQYFREWFSKPANLHGVILPRVSGTHIKLWKLCYFRWVPEAQISLGGSITAFHKLSLLADEVDVLSRMLRQQRSGPLEACYGELGQSRMYFNASGPHHTDTSGTPEFLSSSFPFSPVGNLCRRSILGTPLSKFLSGAKIWLSTETLANED [MTMR10]	-0.147	0.00531
MRSFLQQDVNKTKSRLNVLNGLANNMDDLKINTDITGAKEELLDDNNFISDKESGVHKPKDCQTSFQKNNTLTLPEELSKDKSENALSGGQSSLFIHAGAPTVSSENFILPKGAAVNGPVSHSSLTKTSNMNKGSVSLTTGQPVDQPTTESCSTLKVAADLQLSTPQKASQHQVLFLLSDVAHAKNPTHSNKKLPTSASVGCDIQNSVGSNIKSDGTLINQVEVGEDGEDLLVKDDCVNTVTGISSGTDGFRSENDTNWDPQKEFIQFLMTNEETVDKAPPHSKIGLEKKRKRKMDVSKITRYTEDCFSDSNCVPNKSKMQEVDFLEQNEELQAVDSQKYALSKVKPESTDEDLESVDAFQHLIYNPDKCGEESSPVHTSTFLSNTLKKKCEESDSESPATFSTEEPSFYPCTKCNVNFREKKHLHRHMMYHLDGNSHFRHLNVPRPYACRECGRTFRDRNSLLKHMIIHQERRQKLMEEIRELKELQDEGRSARLQCPQCVFGTNCPKTFVQHAKTHEKDKRYYCCEECNFMAVTENELECHRGIAHGAVVKCPMVTSDIAQRKTQKKTFMKDSVVGSSKKSATYICKMCPFTTSAKSVLKKHTEYLHSSSCVDSFGSPLGLDKRKNDILEEPVDSDSTKTLTKQQSTTFPKNSALKQDVKRTFGSTSQSSSFSKIHKRPHRIQKARKSIAQSGVNMCNQNSSPHKNVTIKSSVDQKPKYFHQAAKEKSNAKANSHYLYRHKYENYRMIKKSGESYPVHFKKEEASSLNSLHLFSSSSNSHNNFISDPHKPDAKRPESFKDHRRVAVKRVIKESKKESSVGGEDLDSYPDFLHKMTVVVLQKLNSAEKKDSYETEDESSWDNVELGDYTTQAIEDETYSDINQEHVNLFPLFKSKVEGQEPGENATLSYDQNDGFYFEYYEDTGSNNFLHEIHDPQHLETADASLSKHSSVFHWTDLSLEKKSCPYCPATFETGVGLSNHVRGHLHRAGLSYEARHVVSPEQIATSDKMQHFKRTGTGTPVKRVRKAIEKSETTSEHTCQLCGGWFDTKIGLSNHVRGHLKRLGKTKWDAHKSPICVLNEMMQNEEKYEKILKALNSRRIIPRPFVAQKLASSDDFISQNVIPLEAYRNGLKTEALSVSASEEEGLNFLNEYDETKPELPSGKKNQSLTLIELLKNKRMGEERNSAISPQKIHNQTARKRFVQKCVLPLNEDSPLMYQPQKMDLTMHSALDCKQKKSRSRSGSKKKMLTLPHGADEVYILRCRFCGLVFRGPLSVQEDWIKHLQRHIVNANLPRTGAGMVEVTSLLKKPASITETSFSLLMAEAAS [ZNF644]	-0.00511	0.321
NAV2	-0.147	0.109
MRDSTGAGNSLVHKRSPLRRNQKTPTSLTKLSLQDGHKAKKPACKFEEGQDVLARWSDGLFYLGTIKKINILKQSCFIIFEDSSKSWVLWKDIQTGATGSGEMVCTICQEEYSEAPNEMVICDKCGQGYHQLCHTPHIDSSVIDSDEKWLCRQCVFATTTKRGGALKKGPNAKALQVMKQTLPYSVADLEWDAGHKTNVQQCYCYCGGPGDWYLKMLQCCKCKQWFHEACVQCLQKPMLFGDRFYTFICSVCSSGPEYLKRLPLQWVDIAHLCLYNLSVIHKKKYFDSELELMTYINENWDRLHPGELADTPKSERYEHVLEALNDYKTMFMSGKEIKKKKHLFGLRIRVPPVPPNVAFKAEKEPEGTSHEFKIKGRKASKPISDSREVSNGIEKKGKKKSVGRPPGPYTRKMIQKTAEPLLDKESISENPTLDLPCSIGRTEGTAHSSNTSDVDFTGASSAKETTSSSISRHYGLSDSRKRTRTGRSWPAAIPHLRRRRGRLPRRALQTQNSEIVKDDEGKEDYQFDELNTEILNNLADQELQLNHLKNSITSYFGAAGRIACGEKYRVLARRVTLDGKVQYLVEWEGATAS [MTF2]	-1.31	0.618
MEDSQDLNEQSVKKTCTESDVSQSQNSRSMEMQDLASPHTLVGGGDTPGSSKLEKSNLSSTSVTTNGTGGENMTVLNTADWLLSCNTPSSATMSLLAVKTEPLNSSETTATTGDGALDTFTGSVITSSGYSPRSAHQYSPQLYPSKPYPHILSTPAAQTMSAYAGQTQYSGMQQPAVYTAYSQTGQPYSLPTYDLGVMLPAIKTESGLSQTQSPLQSGCLSYSPGFSTPQPGQTPYSYQMPGSSFAPSSTIYANNSVSNSTNFSGSQQDYPSYTAFGQNQYAQYYSASTYGAYMTSNNTADGTPSSTSTYQLQESLPGLTNQPGEFDTMQSPSTPIKDLDERTCRSSGSKSRGRGRKNNPSPPPDSDLERVFVWDLDETIIVFHSLLTGSYAQKYGKDPPMAVTLGLRMEEMIFNLADTHLFFNDLEECDQVHIDDVSSDDNGQDLSTYSFATDGFHAAASSANLCLPTGVRGGVDWMRKLAFRYRRVKELYNTYKNNVGGLLGPAKRDAWLQLRAEIEGLTDSWLTNALKSLSIISTRSNCINVLVTTTQLIPALAKVLLYSLGGAFPIENIYSATKIGKESCFERIMQRFGRKVVYVVIGDGVEEEQAAKKHNMPFWRISSHSDLLALHQALELEYL [EYA4]	-0.147	-0.16
MLQKPRNRGRSGGQAERDRDWSHSGNPGASRAGEDARVLRDGFAEEAPSTSRGPGGSQGSQGPSPQGARRAQAAPAVGPRSQKQLELKVSELVQFLLIKDQKKIPIKRADILKHVIGDYKDIFPDLFKRAAERLQYVFGYKLVELEPKSNTYILINTLEPVEEDAEMRGDQGTPTTGLLMIVLGLIFMKGNTIKETEAWDFLRRLGVYPTKKHLIFGDPKKLITEDFVRQRYLEYRRIPHTDPVDYEFQWGPRTNLETSKMKVLKFVAKVHNQDPKDWPAQYCEALADEENRARPQPSGPAPSS [NDNL2]	0.289	0.116
